For assay [1], the target named is T1, human Claudin18.2 (Homo sapiens, UniProt P56856). The experiment in a line: FACS affinity of mouse anti-human Claudin18.2 antibodies to Ba/F3-Claudin 18.2 cells. Format: binding. The arrangement: expressed in transfected cells; host or cells: Ba/F3 (BaF/3, DSMZ ACC300), hygromycin-selected monoclonal line. As to the method: The affinity of the candidates to Claudin18.2 was measured using FACS. Single hybridoma clone 1E9.2, 2C6.9, 6B9.22, 9C8.1, 16A9.11, 19G10.14 and 19H11.6 were cultured in serum-free medium and mouse antibodies were purified from 100 mL supernatant by protein A chromatography (MabSelect SuRe, GE). Ba/F3-Claudin18.1 and Ba/F3-Claudin18.2 cells were incubated with the purified mouse antibodies at various concentrations on ice for 30 min and mouse IgG was used as negative control (Thermo Fisher, Cat: 31903), followed by washing with FACS buffer (PBS+2% FBS) twice. The cells were then incubated with a fluorescent goat-anti-mouse secondary antibody (Jackson ImmunoResearch, Cat: 115-605-071) on ice for 30 min before FACS analysis.

Assay [2] deals with T1, human Claudin18.2. The experiment in a line: Affinity of chimeric and humanized antibodies to Ba/F3-Claudin 18.2 cells (IntelliCyt). In kind it is binding. The arrangement: expressed in transfected cells; host or cells: Ba/F3 (BaF/3, DSMZ ACC300), hygromycin-selected monoclonal line. From the text:
In order to evaluate the anti-Claudin18.2 humanized antibodies, codon optimized cDNAs of the heavy chains and the light chains of the candidate humanized antibodies from Example 6 were synthesized and ligated into pcDNA3.4 (by Nanjing Genscript Biotech Corporation). Expi293F cells (purchased from Thermo Incorporation) were co-transfected with pcDNA3.4 coding the heavy chain and light chain of each antibody. The antibodies were purified from the supernatant using protein A (MabSelect SuRe, GE). The affinity of the humanized antibodies to Claudin18.2 was determined using Ba/F3-Claudin18.2 cells which over-expressed human Claudin18.2. Ba/F3-Claudin18.2 cells (60000 in 10 ul buffer) were incubated with purified humanized antibodies on ice for 30 min, followed by washing with buffer (PBS+2% FBS) twice and addition of Alexa647-labeled goat-anti-human IgG Fc antibody (1:500 dilution). The cells were incubated on ice for another 30 min and analyzed by IntelliCyt.

This is an account of results in patent publication US12297265B2, “Antibody and use thereof” (SICHUAN KELUN-BIOTECH BIOPHARMACEUTICAL CO., LTD., priority 2018, dated 2025).

Numbering of substitutions follows the chain as printed.

B1: 19G10.14: mouse anti-human Claudin18.2 monoclonal antibody; VH SEQ ID NO: 52, VL SEQ ID NO: 53 (antibody, V domains shown)
VH: QVQLKESGPGLVAPSQSLSITCTVSGFSFTSYGVHWVRQPPGKGLEWLGVIWAGGSTDYNAALMSRLSIRKDNSKSQVFLKMNSLQIADTAMYYCARDGHGKVGFDVWGAGTTVTVSS
VL: DIVMTQSPSSLSVSAGEKVTMNCKSSQSLLNSGNQKNYLAWYQQKPGQPPKLLIYGASTRESGVPDRFTGGGSGTDFTLTISSVQAEDLAIYYCQNDHFYPFTFGSGTKLEIK
modifications: heavy chain variable region sequence of mouse antibody 19G10.14; light chain variable region sequence of mouse antibody 19G10.14
As to B1, the “Max MFI (Max Mean Fluorescence Intensity)” value with human Claudin18.2 [1] is recorded as 3.501 ×10^6.

B2: 1E9.2-hz41: humanized antibody of 1E9.2; VH SEQ ID NO: 32, VL SEQ ID NO: 33 (antibody, V domains shown)
VH: EVQLVESGGGLVKPGGSLRLSCAASGFSFSNSAMSWVRQAPGKGLEGVATISSGDSYTYYPDSVKGRFTISRDNAKNSLYLQMNSLRAEDTAVYYCARQGYGNALDYWGQGTLVTVSS
VL: DIVMTQSPDSLAVSLGERATINCKSSQSLLNSGNQKNYLTWYQQKPGQPPKLLIYWSSTRESGVPDRFSGSGSGTDFTLTISSLQAEDFAVYYCQNDYYYPLTFGGGTKVEIK
modifications: heavy chain variable region of humanized antibody 1E9.2hz41; light chain variable region of humanized antibody 1E9.2hz11/1E9.2hz21/1E9.2hz31/1E9.2hz41
As to B2, in the assay with human Claudin18.2 [2], the “Max MFI” value is recorded as 11.28 ×10^6.

B3: 1E9.2-hz31: humanized antibody of 1E9.2; VH SEQ ID NO: 31, VL SEQ ID NO: 33 (antibody, V domains shown)
VH: B2 VH with P61A
VL: B2 VL
modifications: heavy chain variable region of humanized antibody 1E9.2hz31; light chain variable region of humanized antibody 1E9.2hz11/1E9.2hz21/1E9.2hz31/1E9.2hz41
For B3, in the assay with human Claudin18.2 [2], the “Max MFI” value is given as 10.64 ×10^6.

B4: 1E9.2-hz21: humanized antibody of 1E9.2; VH SEQ ID NO: 30, VL SEQ ID NO: 33 (antibody, V domains shown)
VH: B2 VH with A49S, P61A
VL: B2 VL
modifications: heavy chain variable region of humanized antibody 1E9.2hz21; light chain variable region of humanized antibody 1E9.2hz11/1E9.2hz21/1E9.2hz31/1E9.2hz41
B4: the “Max MFI” value with human Claudin18.2 [2] is listed as 14.56 ×10^6.

B5: 6B9.22: mouse anti-human Claudin18.2 monoclonal antibody; VH SEQ ID NO: 50, VL SEQ ID NO: 51 (antibody, V domains shown)
VH: QVQLQQSGAELVKPGASVKMSCKAFGYTFTSYPIEWMKQNHGKSLEWIGNFHPYNDDTKYNEKFKGKAKLTVEKSSSTVYLELSRLTSDDSAVYYCARTYYGNSFAYWGQGTLVTVSS
VL: DIVMTQSPSSLTVTAGEKVTMSCKSSQSLLNSGNQKNYLTWYQQKPGQPPKLLIYWASSRDSGVPHRFTGSGSGTDFTLTISSVQAEDLAFYYCQNDYFYPFTFGAGTKLELK
modifications: heavy chain variable region sequence of mouse antibody 6B9.22; light chain variable region sequence of mouse antibody 6B9.22
As for B5, the “Max MFI (Max Mean Fluorescence Intensity)” value in the assay with human Claudin18.2 [1] is on record as 3.624 ×10^6.

B6: 1E9.2: mouse anti-human Claudin18.2 monoclonal antibody; VH SEQ ID NO: 1, VL SEQ ID NO: 2 (antibody, V domains shown)
VH: B2 VH with Q3M, R19K, A40T, G42E, G44R, N84S, A88S, L113S
VL: B5 VL with A57S, S59T, D61E, H66D, F91V, F99Y, F102L
modifications: heavy chain variable region of mouse antibody 1E9.2; light chain variable region of mouse antibody 1E9.2
As to B6, the “Max MFI (Max Mean Fluorescence Intensity)” value in the assay with human Claudin18.2 [1] is listed as 5.085 ×10^6.

B7: 19H11.6: mouse anti-human Claudin18.2 monoclonal antibody; VH SEQ ID NO: 44, VL SEQ ID NO: 45 (antibody, V domains shown)
VH: EVMLVESGGGLVKPGGSLKLSCAASGFSFSNSAMSWVRQTPEKRLEGVATISSGDSFTYYPDTVKGRFTISRDNAKNSLYLQMSRLRSEDTAVYYCARQGYGNALDYWGQGTSVTVSS
VL: B5 VL with S22T, A57S, S59T, D61E, H66D, F91V, F99Y, F102L
modifications: heavy chain variable region sequence of mouse antibody 19H11.6; light chain variable region sequence of mouse antibody 19H11.6
For the molecule B7, the “Max MFI (Max Mean Fluorescence Intensity)” value with human Claudin18.2 [1] is recorded as 6.008 ×10^6.

B8: 9C8.1: mouse anti-human Claudin18.2 monoclonal antibody; VH SEQ ID NO: 48, VL SEQ ID NO: 49 (antibody, V domains shown)
VH: QVQLQQSGAELVRPGSSVKISCKASGYAFSNYWMNWVKQRPGQGLEWIGQIYPGDGDTNYNGKFKGKATLTTDKSSSTAYMQLSSLTSEDSAVYFCARLYYGNSFAYWGQGTLVTVSS
VL: B5 VL with M21V, S59T, D61E, H66D, E87A, F91I, A106G, L112I
modifications: heavy chain variable region sequence of mouse antibody 9C8.1; light chain variable region sequence of mouse antibody 9C8.1
On to B8, for which, in the assay with human Claudin18.2 [1], the “Max MFI (Max Mean Fluorescence Intensity)” value is 4.969 ×10^6.

B9: 16A9.11: mouse anti-human Claudin18.2 monoclonal antibody; VH SEQ ID NO: 46, VL SEQ ID NO: 47 (antibody, V domains shown)
VH: B7 VH with F57Y, T63S, N74T, R85S, A97T, L105M
VL: B5 VL with A57S, S59T, D61E, H66D, F91V, F99Y, F102L
modifications: heavy chain variable region sequence of mouse antibody 16A9.11; light chain variable region sequence of mouse antibody 16A9.11
Turning to B9, the “Max MFI (Max Mean Fluorescence Intensity)” value with human Claudin18.2 [1] is 5.815 ×10^6.

B10: 2C6.9: mouse anti-human Claudin18.2 monoclonal antibody; VH SEQ ID NO: 3, VL SEQ ID NO: 4 (antibody, V domains shown)
VH: QVQLKESGPGLVAPSQSLSITCTVSGFSLTRYGVSWVRQPPGKGLEWLGVIWGDGNTNFHSFLKSRLSISKDSSKSQVFLKLNSLQTDDTATYYCARVNFGNALDYWGQGTSVTVSS
VL: B5 VL with K18E, S59T, H66D, A86S, F91V, Y98F, F99I, Y100F, F102L
modifications: heavy chain variable region of mouse antibody 2C6.9; light chain variable region of mouse antibody 2C6.9
For the molecule B10, the “Max MFI (Max Mean Fluorescence Intensity)” value with human Claudin18.2 [1] was 6.111 ×10^6.
